According to patent US20260132190A1 (Eli Lilly, published 2026):

Experiments:
[1] = target: T1, human IL-34 (human, UniProt Q6ZMJ4 21-242); test: cell-based or functional assay
T1 sequence: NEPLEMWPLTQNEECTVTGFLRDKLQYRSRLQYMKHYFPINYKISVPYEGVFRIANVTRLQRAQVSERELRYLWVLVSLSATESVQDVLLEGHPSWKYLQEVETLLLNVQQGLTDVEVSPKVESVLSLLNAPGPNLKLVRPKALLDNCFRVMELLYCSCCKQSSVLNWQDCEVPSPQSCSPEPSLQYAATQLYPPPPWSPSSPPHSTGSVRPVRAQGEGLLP

[2] = target: T2, cynomolgus monkey IL-34 (cynomolgus monkey, UniProt G7Q1L3 21-242); test: competition ELISA, displacement of biotinylated cyno IL-34 from coated cyno CSF1R ECD-Fc
T2 construct: It was biotinylated in the CSF1R displacement ELISA; also called cyno IL-34
T2 sequence: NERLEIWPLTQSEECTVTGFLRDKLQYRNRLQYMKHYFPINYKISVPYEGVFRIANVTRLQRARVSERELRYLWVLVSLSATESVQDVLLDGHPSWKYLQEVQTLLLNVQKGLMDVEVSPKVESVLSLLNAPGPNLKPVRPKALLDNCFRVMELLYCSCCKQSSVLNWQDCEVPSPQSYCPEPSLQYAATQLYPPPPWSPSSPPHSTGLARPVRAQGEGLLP
Description: (§1) CSF1R extracellular domain proteins (hCSF1R_Fc commercially available from R&D Cat #329-MR, cynomolgus CSF1R ECD-Fc (AAA is a linker between CSF1R extracellular domain and Fc) (SEQ ID NO: 34)) can be bound to an ELISA plate at concentrations of 30 nM in order to capture soluble biotinylated IL-34 and allowed to bind for one hour. After washing and blocking plate, biotinylated IL-34 may be added, then detected via streptavidin conjugated peroxidase. Concentrations of labeled IL-34 near the 80% binding level (EC₈₀) (3.7 nM) may be used in conjunction with a range of antibody concentrations (0-100 nM) to determine concentration of antibody required to displace IL-34 from CSF1R. After 1 hr incubation, IL-34 bound to CSF1R is detected via streptavidin conjugated peroxidase. The antibodies are assayed (n=2) and the average and standard deviation at each concentration are calculated. The potency of an antibody to displace IL-34 from CSF1R is reported as IC₅₀ (nM) with the calculated confidence interval (CI) in Table 4 and Table 5.

[3] = target: T1, human IL-34; test: SPR BIAcore 8K, 37 C, antibody captured on Protein A chip, IL-34 in solution
Description: (§2) Binding affinity of anti-IL-34 monoclonal antibodies of the present disclosure to human and/or cynomolgus monkey (cyno) IL-34 may be determined by methods known in the art. Briefly, the binding affinity and kinetics of the antibody are evaluated by surface plasmon resonance using BIAcore™ 8K (Cytiva) at 37° C. […] For each cycle, 200 μL IL-34 is flowed over the immobilized antibody at 100 μL/minute, and then dissociated for 20 minutes. The chip surface is regenerated with 50 μL of glycine buffer at pH 1.5 at a flow rate of 100 μL/minute. The data are fit to a 1:1 Langmiur binding mode to derive kon, koff and to calculate KD.

[4] = target: T2, cynomolgus monkey IL-34; test: as above
Description: as §2

[5] = target: T1, human IL-34; test: competition ELISA, displacement of biotinylated human IL-34 from coated hCSF1R_Fc
Description: as §1

IC50 (ug/ml), neutralization of human IL-34 induced luciferase reporter activity [1]: 0.0531 µg/mL | IC50 [2]: 0.975 nM | Kd [3]: 0.0312 nM | koff [3]: 0.00026 s⁻¹ | kon [3]: 8.4e+06 M⁻¹ s⁻¹ | Kd [4]: 0.0409 nM | koff [4]: 0.0003 s⁻¹ | kon [4]: 7.9e+06 M⁻¹ s⁻¹ | IC50 [5]: 0.0274 nM
B1: Antibody 1 (antibody, human IgG4 S228P, kappa, F234A L235A, V domains shown)
VH: EVQLLESGGGLVQPGGSLRLSCAASGFAFSSYRMSWVRQAPGKGLEWVSAISASGGKTYYADSVKGRFTISRDNSKNTLYLQMNSLRAEDTAVYYCAKRGYIWHAFDLWGRGTLVTVSS
VL: EIVLTQSPGTLSLSPGERATLSCRASQSVYSSYLAWYQQKPGQAPRLLIYGASSRATGIPDRFSGSGSGTDFTLTISRLEPEDFAVYYCQVVGSSPPFTFGGGTKVEIKR
notes: Human anti-IL-34 antibody with IgG4 PAA hinge/Fc and kappa light chain; also called Exemplified Antibody 1; exemplified antibody 1
